B1: Phospholipid-transporting ATPase accessory subunit CRF1 (Saccharomyces cerevisiae), P53740 (parent)
chain: MGLILRWKEKKQLSSKQNAQKSRKPANTSFRQQRLKAWQPILSPQSVLPLLILMACVFAPIGIGLVVSTISVQRLVVNYTECDALAPAKHFETIPSEYVDYHFSKKVAVQPQWMVLTDPELGNQTCRIQFEVPNHIKKSTYVYYRLTNFNQNYREYVQSLDLDQLKGKALIGNDLDPNCDPLRTVENKTIFPCGLIANSMFNDTFGTTLTGVNDTADYLLTTKGIAWDTDSHRYGKTEYNASDIVPPPNWAKLFPNGYTDDNIPDLQNWEQFKIWMRTAALPNFYKLAMKNETNGLGKGIYIADIELNYPVRSFYGTKSFVLTTNSIIGAGNEALGIVYLIVAGIATLFAILFLIKVIFKPRPMHDHSYLNFENSDTPFDESSVVSIPLREIL

Variants of: B1
Conditions: with atc8_yeast DNF3, Q12674
Sequence of atc8_yeast DNF3, Q12674 (Q12674 whole entry): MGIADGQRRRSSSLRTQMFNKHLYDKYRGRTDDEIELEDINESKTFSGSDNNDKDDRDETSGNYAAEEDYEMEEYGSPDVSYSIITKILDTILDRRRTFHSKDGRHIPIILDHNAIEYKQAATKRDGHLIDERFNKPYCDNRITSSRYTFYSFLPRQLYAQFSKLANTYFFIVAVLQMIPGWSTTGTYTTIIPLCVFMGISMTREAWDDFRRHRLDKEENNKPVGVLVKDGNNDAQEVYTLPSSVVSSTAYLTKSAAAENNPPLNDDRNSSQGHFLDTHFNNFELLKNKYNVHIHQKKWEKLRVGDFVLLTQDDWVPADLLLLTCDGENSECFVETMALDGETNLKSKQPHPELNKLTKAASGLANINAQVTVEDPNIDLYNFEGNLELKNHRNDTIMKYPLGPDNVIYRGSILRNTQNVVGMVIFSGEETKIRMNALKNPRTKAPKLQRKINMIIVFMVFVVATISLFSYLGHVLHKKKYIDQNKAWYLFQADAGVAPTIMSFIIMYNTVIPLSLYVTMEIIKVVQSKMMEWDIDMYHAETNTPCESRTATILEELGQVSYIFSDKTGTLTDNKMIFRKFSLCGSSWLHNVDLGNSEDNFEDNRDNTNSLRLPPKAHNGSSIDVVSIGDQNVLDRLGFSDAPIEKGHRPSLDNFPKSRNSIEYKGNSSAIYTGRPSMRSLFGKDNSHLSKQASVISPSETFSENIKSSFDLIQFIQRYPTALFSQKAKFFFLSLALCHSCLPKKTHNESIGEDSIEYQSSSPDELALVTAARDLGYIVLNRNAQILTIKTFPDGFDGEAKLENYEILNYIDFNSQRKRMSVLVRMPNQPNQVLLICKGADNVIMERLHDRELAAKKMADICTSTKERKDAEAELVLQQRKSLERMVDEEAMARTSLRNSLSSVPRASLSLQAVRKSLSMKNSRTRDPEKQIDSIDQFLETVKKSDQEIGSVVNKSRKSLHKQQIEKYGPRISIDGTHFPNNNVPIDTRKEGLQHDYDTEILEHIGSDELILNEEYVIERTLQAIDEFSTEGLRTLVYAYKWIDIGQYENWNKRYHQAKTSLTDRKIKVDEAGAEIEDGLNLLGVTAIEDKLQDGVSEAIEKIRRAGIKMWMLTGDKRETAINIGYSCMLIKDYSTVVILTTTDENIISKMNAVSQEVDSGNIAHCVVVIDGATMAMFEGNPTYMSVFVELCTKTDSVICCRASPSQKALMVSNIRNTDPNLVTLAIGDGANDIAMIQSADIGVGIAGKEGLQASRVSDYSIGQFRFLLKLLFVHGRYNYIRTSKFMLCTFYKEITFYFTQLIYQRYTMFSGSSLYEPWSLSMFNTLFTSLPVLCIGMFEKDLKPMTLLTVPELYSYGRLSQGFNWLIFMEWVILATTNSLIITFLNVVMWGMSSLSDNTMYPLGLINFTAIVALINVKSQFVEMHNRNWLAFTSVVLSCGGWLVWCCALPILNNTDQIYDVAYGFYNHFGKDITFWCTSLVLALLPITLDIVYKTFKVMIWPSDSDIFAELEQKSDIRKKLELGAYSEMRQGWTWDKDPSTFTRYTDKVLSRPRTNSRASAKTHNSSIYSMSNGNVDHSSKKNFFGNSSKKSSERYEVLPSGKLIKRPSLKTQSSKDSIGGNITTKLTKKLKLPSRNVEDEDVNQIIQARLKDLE

Row | effect of a mutation on the interaction | Variant
1 | disrupting interaction strength | C126A
2 | decreasing interaction strength | C193A
3 | disrupting interaction strength | C82A

— IntAct's records for PubMed 22791719
